Assay results from patent US20100260765A1 (AstraZeneca / MedImmune, published 2010).
Numbering of substitutions follows the chain as printed.

B1: anti-KDR monoclonal antibody 22B8 (antibody, V domains shown)
VH: QLQLQESGPGLVKPSETLSLTCTVSGGSISSRYYYWGWVRQPPGKGLEWIGTIYYSGHTYYNPSLKTRVTISVDTSKNQFSLKLISVTAADTAVYYCATQQLVLYYFDFWGQGTLVTVSS
VL: EIVLTQSPGTLSLSPGERAALSCRASQSISSSYLAWYQQRPGQAPRLLIYGASSRATGIPDRFNGSGSGTDFTLTISRLEPEDFAVYYCQQFGSSITFGQGTRLEIK
notes: Fully human mAb from XenoMouse (IgG2 or IgG4 strain); hybridoma supernatant
B2: anti-KDR monoclonal antibody 27D10 (antibody, V domains shown)
VH: B1 VH with Y33S, Y34D, V39I, H58S, Y60F, T67S, I85S, T99R, F109Y
VL: not shown
notes: as for B1
B3: anti-KDR monoclonal antibody 30A1 (antibody, V domains shown)
VH: B1 VH with R32P, Y33N, V39I, H58N, Y60F, T67S, I85S
VL: B1 VL with E17K, R40K, F92L
notes: as for B1
B4: anti-KDR monoclonal antibody 32F4 (antibody, V domains shown)
VH: QLQLQESGPGLVKPSGTLSLSCTVSGGSISSRSDYWGWIRQPPGKGLEWIGTIYYSGNTFYNPSLKSRVTISVDTSKKQFSLKLSSVTAADTAVYYCARQQLVLYYFDYWGQGTLVTVSS
VL: EIVLTQSPGTLSLSPGERATLSCRTSQSVSSSYLAWYQQKPGQAPRLLIYGASSRATGVPDRFSGSGSGTDFSLTISRLEPEDFAVYYCQQYGSSPPLTFGGGTKVEIK
notes: as for B1
B5: anti-KDR monoclonal antibody 29D4 (antibody, V domains shown)
VH: B4 VH with G16E, S21T, D34N, N58H, F60Y, T70S, K78N, A90T, V94L, D108E
VL: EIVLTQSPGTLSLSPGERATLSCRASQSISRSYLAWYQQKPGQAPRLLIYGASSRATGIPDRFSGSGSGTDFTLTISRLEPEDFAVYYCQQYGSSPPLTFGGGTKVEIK
notes: as for B1
B6: anti-KDR monoclonal antibody 29H3 (antibody, V domains shown)
VH: QVQLVQSGAEVKKPGASVKVSCKASGYTFTSYDINWVRQATGQGLEWMGWMNPNSGKTGYAQKFQGRVTMTRNTSINTAYMELSSLRSEDTAVYYCARGGYSNLGWFDPWGQGTLVTVSS
VL: DIQMTQSPSSVSASVGDRVTITCRASQGISSWLVWYHQKPGKAPKLLIYGASSLQSGVPSRFSGSGSGTDFTLTISSLQPEDFATYYCQQANNFPFTFGPGTKVDIK
notes: as for B1
B7: anti-KDR monoclonal antibody 33C3 (antibody, V domains shown)
VH: QVQLVESGGGLVKPGESLRLSCAASGFTFSDYYMSWIRQAPGKGLEWVSYISHGGSTIYYADSVKGRFTISRDNAKNSLYLQMNSLRVEDTAVYFCARDDFWSGYYFNWFDPWGQGALVTVSS
VL: DIQMTQYPLSLSASVGDRVTITCRASQSISSFLNWYHQKPGKAPKLLIYGTSSLQSGVPSRFSGSGSGTDFTLTISSLQPEDFATYYCQQTYSIPLTFGGGTNVEIK
notes: as for B1
B8: anti-KDR monoclonal antibody 31E11 (antibody, V domains shown)
VH: B7 VH with E16G, H53I, G54S, V88A, F95Y, A117T
VL: DIQMTQSPSSLSASVGDRVTITCRANQTISTFLNWYQQNPGKAPKLLIYAASSLQSGVPSRFSGSGSGTDFTLTISSLQPEDFATYYCQQTYIIPLTFGGGTKVEIK
notes: as for B1
B9: anti-KDR monoclonal antibody 33E1 (antibody, V domains shown)
VH: QVQLQESGPGLVKPSQTLSLTCTVSGGSISSGDHYWSWIRQHPGKGLEWIGHIYYSGSTDYNPSLKSRVTISVDTSKNHFSLKLNSVTAADTAVYYCARTNSSSWSDWYFDLWGRGTLVTVSS
VL: DIVMTQSPDSLAVSLGERATINCKSSQSILYSSNNKNYLAWYQRKPGQPPILLIHWASTRESGVPDRFSGSGSRTDFTLTISSLQAEDVAVYYCQQYFITPWTFGQGTKVEIK
notes: as for B1

Target: T1, mouse KDR (Flk-1)/Fc (Cat. #443-KD/CF, R&D Systems) (mouse, UniProt P35918 20-762)
T1 construct: Bought reagent; also called mouse VEGFR2; KDR mouse ortholog; Fc part of the bought chimera not given
Assay: ELISA, plate-coated Flk-1/Fc 500 ng/mL, hybridoma supernatant 1:5
Protocol: The cross-reactivity of antibodies in the hybridoma supernatant was tested against KDR mouse ortholog (mouse VEGFR2, or Flk-1) and human VEGFR1 (Flt-1). Cross-reactivity was measured using an ELISA based assay.
After washing and blocking the plates, the antibody-containing supernatants were added (at 1:5 dilution) into the coated wells and incubated for one hour at room temperature. The plates were then incubated with mouse anti-human IgG 2, 3 and 4 and subsequently with goat anti-mouse IgG Fc POD, to detect and measure bound antibodies.

T1 sequence (P35918 20-762): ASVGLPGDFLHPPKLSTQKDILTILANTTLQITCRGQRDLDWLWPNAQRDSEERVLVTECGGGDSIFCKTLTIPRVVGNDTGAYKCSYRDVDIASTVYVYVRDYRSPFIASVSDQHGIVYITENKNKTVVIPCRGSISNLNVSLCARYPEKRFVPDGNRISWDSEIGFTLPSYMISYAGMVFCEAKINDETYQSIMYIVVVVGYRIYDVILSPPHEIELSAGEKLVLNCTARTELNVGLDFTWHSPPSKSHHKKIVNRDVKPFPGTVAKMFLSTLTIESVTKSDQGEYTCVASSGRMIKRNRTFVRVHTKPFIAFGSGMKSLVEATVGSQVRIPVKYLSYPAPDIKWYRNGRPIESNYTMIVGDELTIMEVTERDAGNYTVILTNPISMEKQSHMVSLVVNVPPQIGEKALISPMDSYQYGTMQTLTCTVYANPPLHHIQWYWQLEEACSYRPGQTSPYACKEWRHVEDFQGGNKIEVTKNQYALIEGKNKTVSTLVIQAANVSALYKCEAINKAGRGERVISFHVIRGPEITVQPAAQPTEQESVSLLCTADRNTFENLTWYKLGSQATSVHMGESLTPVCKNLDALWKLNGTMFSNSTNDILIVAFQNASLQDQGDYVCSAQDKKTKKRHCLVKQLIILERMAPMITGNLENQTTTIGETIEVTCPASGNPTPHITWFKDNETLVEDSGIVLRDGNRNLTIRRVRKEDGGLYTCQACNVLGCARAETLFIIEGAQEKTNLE

| Binder | OD (450 nm) |
| --- | --- |
| B1 | 0.074 OD450 |
| B2 | 0.166 OD450 |
| B3 | 0.107 OD450 |
| B4 | 0.094 OD450 |
| B5 | 0.1 OD450 |
| B6 | 0.096 OD450 |
| B7 | 0.076 OD450 |
| B8 | 0.162 OD450 |
| B9 | 0.097 OD450 |

Target: T2, human KDR (VEGFR2) on cells (human, UniProt P35968 20-1356)
Assay: cell-based or functional assay

T2 sequence (P35968 20-1356): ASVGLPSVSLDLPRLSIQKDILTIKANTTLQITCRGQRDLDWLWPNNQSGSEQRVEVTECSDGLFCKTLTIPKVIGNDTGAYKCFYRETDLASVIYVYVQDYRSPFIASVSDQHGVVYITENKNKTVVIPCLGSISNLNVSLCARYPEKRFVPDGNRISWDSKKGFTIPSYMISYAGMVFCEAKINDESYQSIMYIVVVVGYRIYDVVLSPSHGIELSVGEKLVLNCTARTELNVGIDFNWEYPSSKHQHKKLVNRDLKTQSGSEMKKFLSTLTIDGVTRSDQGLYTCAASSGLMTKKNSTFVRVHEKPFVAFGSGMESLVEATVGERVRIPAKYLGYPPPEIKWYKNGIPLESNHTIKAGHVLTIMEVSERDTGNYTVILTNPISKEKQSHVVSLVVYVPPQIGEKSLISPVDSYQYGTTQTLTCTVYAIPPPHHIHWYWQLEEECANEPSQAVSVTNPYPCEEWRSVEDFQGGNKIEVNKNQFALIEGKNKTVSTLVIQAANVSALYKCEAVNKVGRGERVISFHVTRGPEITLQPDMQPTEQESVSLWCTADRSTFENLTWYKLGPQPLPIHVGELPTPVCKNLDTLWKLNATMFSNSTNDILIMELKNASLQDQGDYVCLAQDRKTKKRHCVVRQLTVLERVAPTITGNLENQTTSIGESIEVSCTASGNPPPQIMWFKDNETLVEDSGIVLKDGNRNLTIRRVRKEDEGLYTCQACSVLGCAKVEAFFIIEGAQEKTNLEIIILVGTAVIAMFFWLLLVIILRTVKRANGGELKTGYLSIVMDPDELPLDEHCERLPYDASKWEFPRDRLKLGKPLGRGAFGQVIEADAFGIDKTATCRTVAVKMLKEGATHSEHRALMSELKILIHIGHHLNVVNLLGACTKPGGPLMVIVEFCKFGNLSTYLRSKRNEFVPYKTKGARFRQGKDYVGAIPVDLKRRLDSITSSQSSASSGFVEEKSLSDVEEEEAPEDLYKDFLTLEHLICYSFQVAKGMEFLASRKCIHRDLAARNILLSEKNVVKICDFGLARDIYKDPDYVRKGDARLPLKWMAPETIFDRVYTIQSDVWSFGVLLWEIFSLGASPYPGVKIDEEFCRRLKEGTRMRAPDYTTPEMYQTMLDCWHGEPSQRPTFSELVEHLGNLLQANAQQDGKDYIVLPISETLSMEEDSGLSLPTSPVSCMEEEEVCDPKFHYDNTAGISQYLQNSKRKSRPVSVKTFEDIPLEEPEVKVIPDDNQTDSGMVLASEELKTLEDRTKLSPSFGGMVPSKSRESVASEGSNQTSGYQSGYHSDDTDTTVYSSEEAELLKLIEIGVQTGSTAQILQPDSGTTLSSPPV

| Binder | HUVEC survival (n = 1) 1:10 dilution of supernatant (RLU) | HUVEC survival (n = 2) 1:20 dilution of supernatant (RLU) |
| --- | --- | --- |
| B1 | 12900 RLU | 3260 RLU |
| B2 | 20100 RLU | 9710 RLU |
| B3 | 14400 RLU | 9730 RLU |
| B4 | 20100 RLU | 5030 RLU |
| B5 | 12900 RLU | 5380 RLU |
| B6 | 32700 RLU | 544 RLU |
| B7 | 6540 RLU | 4710 RLU |
| B8 | 9140 RLU | 6980 RLU |
| B9 | 25700 RLU | 2310 RLU |

Target: T3, soluble KDR (VEGF Receptor 2 D1-7, Cat. #676490, Calbiochem) (human, UniProt P35968 20-764)
T3 construct: extracellular domain; Bought reagent; also called soluble human KDR; immobilized soluble KDR
Assay: ELISA, plate-coated soluble KDR 250 ng/mL, hybridoma supernatant 1:5
Protocol: To screen by binding to immobilized soluble KDR, plates were coated with KDR (Calbiochem) at 250 ng/mL overnight at 4° C. After blocking and washing the coated plates, the candidate hybridoma supernatants (at 1:5 dilution) were transferred to the plates and incubated for one hour at room temperature. The plates were then washed and incubated with secondary antibody (at 1:4000 dilution) for one hour at room temperature.

T3 sequence (P35968 20-764): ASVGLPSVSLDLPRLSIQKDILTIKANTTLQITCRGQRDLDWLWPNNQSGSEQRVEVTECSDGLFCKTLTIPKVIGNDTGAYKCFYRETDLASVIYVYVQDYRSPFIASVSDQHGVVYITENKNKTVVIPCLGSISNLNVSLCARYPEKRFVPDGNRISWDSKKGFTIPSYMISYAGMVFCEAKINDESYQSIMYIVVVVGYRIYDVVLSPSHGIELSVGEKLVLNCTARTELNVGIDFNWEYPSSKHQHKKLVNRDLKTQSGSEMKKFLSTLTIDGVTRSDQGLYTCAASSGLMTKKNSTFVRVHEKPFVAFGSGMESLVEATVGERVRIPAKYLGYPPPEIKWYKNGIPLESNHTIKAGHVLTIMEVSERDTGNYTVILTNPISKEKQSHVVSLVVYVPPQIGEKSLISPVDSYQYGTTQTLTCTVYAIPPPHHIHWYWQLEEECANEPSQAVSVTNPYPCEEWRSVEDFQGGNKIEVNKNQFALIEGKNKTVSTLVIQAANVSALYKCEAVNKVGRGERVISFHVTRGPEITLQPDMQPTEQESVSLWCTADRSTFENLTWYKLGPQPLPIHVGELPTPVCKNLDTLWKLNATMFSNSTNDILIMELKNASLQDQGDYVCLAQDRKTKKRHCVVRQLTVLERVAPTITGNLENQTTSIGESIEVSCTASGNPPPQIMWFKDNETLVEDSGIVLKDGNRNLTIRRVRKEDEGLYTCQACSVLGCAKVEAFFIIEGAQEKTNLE

| Binder | KDR OD(450 nm) |
| --- | --- |
| B1 | 1.18 OD450 |
| B2 | 3.24 OD450 |
| B3 | 0.786 OD450 |
| B4 | 0.907 OD450 |
| B5 | 1 OD450 |
| B6 | 0.83 OD450 |
| B7 | 1.15 OD450 |
| B8 | 1.14 OD450 |
| B9 | 4.55 OD450 |

Target: T2, human KDR (VEGFR2) on cells
Assay: cell-based or functional assay
Remark: another data set of the same source

| Binder | % Inhibition of VEGF165-mediated pTyr Activity, Average | % Inhibition of VEGF165-mediated pTyr Activity, n = 1 | % Inhibition of VEGF165-mediated pTyr Activity, n = 2 | % Inhibition of VEGF165-mediated pTyr Activity, n = 3 |
| --- | --- | --- | --- | --- |
| B1 | 67% | 82% | 65% | 53% |
| B2 | 58% | 62% | 48% | 63% |
| B3 | 65% | 86% | 59% | 52% |
| B4 | 73% | 88% | 76% | 56% |
| B5 | 72% | 85% | 67% | 63% |
| B6 | 76% | 89% | 72% | 66% |
| B7 | 71% | 87% | 75% | 50% |
| B8 | 74% | 81% | 80% | 59% |
| B9 | 73% | 88% | 78% | 52% |

Target: T2, human KDR (VEGFR2) on cells
Assay: FACS on HUVEC, hybridoma supernatant 1:50
Procedure, shortened: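 HUVECs incubated 1 h at 4° C with hybridoma supernatant at 1:50, then Cy5 goat anti-human antibody (5 μg/mL) plus 7AAD (5 μg/mL) for 15 min at 4° C. Cell-surface binding read by FACS; goat anti-KDR antibody as positive control, irrelevant hybridoma supernatants as negative controls.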

| Binder | FACS Geometric Mean |
| --- | --- |
| B1 | 24 |
| B2 | 24 |
| B3 | 25 |
| B4 | 27 |
| B5 | 26 |
| B6 | 27 |
| B7 | 20 |
| B8 | 18 |
| B9 | 14 |

Target: T4, b-KDRIg4-7-myc-his (UniProt P35968 328-764, prefix 'b-' not explained; captured on neutravidin-coated plates (presumably biotinylated, site not stated))
T4 construct: domain: Ig4-7; The text calls it 'a KDR antibody containing the Ig4-7 domain'; it is read as the KDR fragment; Purified on a nickel column; also called Ig4-7 domain of KDR; soluble KDR Ig4-7; not shown: myc-his tag of the pSecTag vector
Assay: ELISA, b-KDRIg4-7-myc-his 1 ug/mL on neutravidin, hybridoma supernatant 1:5
Protocol: To screen by binding to the Ig4-7 domain of KDR, plates were first coated with neutravadin (Pierce) at 4 μg/mL and incubated overnight at 4° C. The plates were then blocked and subsequently incubated with b-KDRIg4-7-myc-his at 1 μg/mL for one hour at room temperature. Candidate hybridoma supernatants (at 1:5 dilution) were transferred to the plates and incubated for one hour at room temperature. The plates were then washed and incubated with goat anti-human IgG Fc POD (at 1:4000 dilution) for one hour at room temperature.

T4 sequence (P35968 328-764): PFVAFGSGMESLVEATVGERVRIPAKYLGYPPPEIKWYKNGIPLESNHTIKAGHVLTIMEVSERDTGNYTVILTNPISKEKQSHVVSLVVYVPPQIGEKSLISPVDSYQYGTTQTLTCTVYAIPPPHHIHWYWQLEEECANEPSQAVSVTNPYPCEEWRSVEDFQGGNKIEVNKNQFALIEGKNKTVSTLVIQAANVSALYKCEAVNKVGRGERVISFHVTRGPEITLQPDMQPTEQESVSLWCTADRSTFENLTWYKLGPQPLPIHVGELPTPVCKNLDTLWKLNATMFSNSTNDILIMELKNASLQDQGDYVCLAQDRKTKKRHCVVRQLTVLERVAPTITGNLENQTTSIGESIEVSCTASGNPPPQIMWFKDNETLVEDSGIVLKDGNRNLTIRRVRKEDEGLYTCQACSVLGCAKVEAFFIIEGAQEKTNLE

| Binder | b-KDRIg4-7 OD(450 nm) |
| --- | --- |
| B1 | 2.81 OD450 |
| B2 | 2.03 OD450 |
| B3 | 1.21 OD450 |
| B4 | 2.29 OD450 |
| B5 | 2.61 OD450 |
| B6 | 0.071 OD450 |
| B7 | 3.66 OD450 |
| B8 | 1.28 OD450 |
| B9 | 0.62 OD450 |

Target: T2, human KDR (VEGFR2) on cells
Assay: cell-based or functional assay
Remark: another data set of the same source

| Binder | % Inhibition of VEGF-E-mediated pTyr Activity |
| --- | --- |
| B1 | 61% |
| B2 | 63% |
| B3 | 50% |
| B4 | 62% |
| B5 | 67% |
| B6 | 18% |
| B7 | 66% |
| B8 | 67% |
| B9 | 46% |
